From doi:10.1101/2020.06.24.169185 (bioRxiv, 2020)

B1: mCherry-Nanog (natural protein, UniProt Q80Z64 1-305, looked up)
chain: MSVGLPGPHSLPSSEEASNSGNASSMPAVFHPENYSCLQGSATEMLCTEAASPRPSSEDLPLQGSPDSSTSPKQKLSSPEADKGPEEEENKVLARKQKMRTVFSQAQLCALKDRFQKQKYLSLQQMQELSSILNLSYKQVKTWFQNQRMKCKRWQKNQWLKTSNGLIQKGSAPVEYPSIHCSYPQGYLVNASGSLSMWGSQTWTNPTWSSQTWTNPTWNNQTWTNPTWSSQAWTAQSWNGQPWNAAPLHNFGEDFLQPYVQLQQNFSASDLEVNLEATRESHAHFSTPQALELFLNYSVTPPGEI

Key:
[1] = molecular target: the molecule itself; assay: fluorescence correlation spectroscopy
mCherry-Nanog = molecular target: B1; assay: fluorescence cross-correlation spectroscopy
[2] = molecular target: the molecule itself; assay: fluorescence correlation spectroscopy; remark: listed apart in the source
[3] = molecular target: the molecule itself; assay: fluorescence correlation spectroscopy; remark: listed apart in the source

complex % (mCherry-Nanog) [%]	Binder	stoichiometry N [1]	GFP-Nanog/GFP brightness ratio [2]	mCherry-Nanog/mCherry brightness ratio [3]
19.8	GFP-Nanog (natural protein, UniProt Q80Z64 1-305, looked up) MSVGLPGPHSLPSSEEASNSGNASSMPAVFHPENYSCLQGSATEMLCTEAASPRPSSEDLPLQGSPDSSTSPKQKLSSPEADKGPEEEENKVLARKQKMRTVFSQAQLCALKDRFQKQKYLSLQQMQELSSILNLSYKQVKTWFQNQRMKCKRWQKNQWLKTSNGLIQKGSAPVEYPSIHCSYPQGYLVNASGSLSMWGSQTWTNPTWSSQTWTNPTWNNQTWTNPTWSSQAWTAQSWNGQPWNAAPLHNFGEDFLQPYVQLQQNFSASDLEVNLEATRESHAHFSTPQALELFLNYSVTPPGEI	2	~1.5	–
–	B1	–	–	~2
26.1	GFP-Sox2 (natural protein) not shown	–	–	–
